Nine molecules from US20110143953A1 (ARIZONA BOARD OF REGENTS A BODY CORPORATE OF THE STATE OF …, published 2011) can be followed below.

The target of one assay is T1, transferrin (UniProt P02787 20-698, randomly labelled at free amines with Alexa 555 in the peptide array screen; amine-coupled to the chip in SPR).
T1 construct: also called TRF
The experiment in a line: SPR (Biacore T100), transferrin immobilized, steady-state response. In general terms: Surface plasmon resonance follows binding to a sensor surface in real time, without labels.

For assay [1], the target named is T2, Gal80 (UniProt P04387 1-435, limits assumed, labelled with Cy3 or Cy5 in the peptide array screen).
T2 sequence (looked up): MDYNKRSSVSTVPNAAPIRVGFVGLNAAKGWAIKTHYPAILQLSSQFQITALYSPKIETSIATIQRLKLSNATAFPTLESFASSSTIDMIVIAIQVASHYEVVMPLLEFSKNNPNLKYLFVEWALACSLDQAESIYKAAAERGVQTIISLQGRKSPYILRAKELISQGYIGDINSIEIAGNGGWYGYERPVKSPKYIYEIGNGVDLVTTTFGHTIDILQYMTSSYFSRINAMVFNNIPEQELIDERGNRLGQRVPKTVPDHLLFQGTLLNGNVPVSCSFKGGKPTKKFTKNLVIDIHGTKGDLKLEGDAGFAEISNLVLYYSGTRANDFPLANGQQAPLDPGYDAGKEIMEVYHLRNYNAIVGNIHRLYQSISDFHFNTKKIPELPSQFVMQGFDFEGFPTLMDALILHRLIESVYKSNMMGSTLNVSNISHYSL
The experiment in a line: SPR, gal80 immobilised on the chip, Kd from on and off rates.

Assay [2] addresses T2, Gal80. Briefly: SPR, synbody in solution (1 µM to 7.81 nM) on surface-bound Gal80; SPR, synbody in solution, surface-bound Gal80.
Assay [3] addresses T2, Gal80. The experiment in a line: gel shift assay; gel shift assay. (In general: In EMSA bound probe runs differently from free probe, usually more slowly.)

The term Kd denotes the free concentration of one partner at which half of the binding sites on the other are occupied at equilibrium, for simple one-to-one binding.

T1 sequence (P02787 20-698 limits assumed): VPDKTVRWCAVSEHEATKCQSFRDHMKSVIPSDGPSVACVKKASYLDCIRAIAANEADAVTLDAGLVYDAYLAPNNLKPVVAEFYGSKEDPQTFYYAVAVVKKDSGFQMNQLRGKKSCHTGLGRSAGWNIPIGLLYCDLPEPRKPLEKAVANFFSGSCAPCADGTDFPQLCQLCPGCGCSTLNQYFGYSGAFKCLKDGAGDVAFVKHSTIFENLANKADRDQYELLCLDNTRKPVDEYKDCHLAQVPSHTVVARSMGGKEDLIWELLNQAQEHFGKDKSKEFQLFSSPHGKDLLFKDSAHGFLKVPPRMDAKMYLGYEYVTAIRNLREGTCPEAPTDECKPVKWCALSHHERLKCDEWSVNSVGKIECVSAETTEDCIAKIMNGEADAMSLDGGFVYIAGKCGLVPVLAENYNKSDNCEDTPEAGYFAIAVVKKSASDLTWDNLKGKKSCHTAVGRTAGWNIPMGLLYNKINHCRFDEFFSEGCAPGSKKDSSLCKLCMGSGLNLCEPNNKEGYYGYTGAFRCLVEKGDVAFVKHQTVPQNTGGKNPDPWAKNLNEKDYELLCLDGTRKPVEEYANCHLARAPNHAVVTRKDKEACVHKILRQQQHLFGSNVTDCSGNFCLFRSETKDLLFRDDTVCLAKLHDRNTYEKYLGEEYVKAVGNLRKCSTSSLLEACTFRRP
Excerpt for transferrin: Flow rates and contact times are adjusted as necessary to provide the surface concentration of target desired for the intended application, and may vary by target. In general, for evaluating whether binding occurs, it is preferable to immobilize a relatively large quantity of target, and higher flow rates and/or longer contact times may be used. For determining kinetics, it is preferable to limit the amount of target immobilized so as to minimize rebinding and avidity effects, and lower flow rates and/or contact times may be used.
Candidate affinity elements for the transferrin synbody TRF19, TRF21, TRF23, TRF24, TRF25, and TRF26 were individually evaluated for solution phase KD with respect to transferrin by SPR analysis. […] For each experiment, response data were processed using a reference surface to correct for bulk refractive index changes and any non-specific binding. Data were also double referenced using responses from blank running buffer injections.

APYAPQQIHYWSTLGFKGSC (20-mer random peptide) [TRF25] had a dissociation constant Kd in the assay with transferrin of approximately 60 µM.

B1: BP1 on dsDNA (peptide)
peptide: GTEKGTSGWLKTGSC
modifications: chain 1 pos 15: Cys thiol joined via SMCC maleimide to an amine-modified cytosine of the double-stranded DNA linker. The DNA cannot be carried by the letters.
notes: also called BP1 complexed by itself to the double-stranded DNA linker
For B1, in the assay with Gal80 [1], binding was put at a Kd of 482 nM.

B2: BP2 on dsDNA (peptide)
peptide: EGEWTEGKLSLRGSC
modifications: chain 1 pos 15: Cys thiol joined via SMCC maleimide to an amine-modified cytosine of the double-stranded DNA linker. The DNA cannot be carried by the letters.
notes: also called BP2 complexed by itself to the double-stranded DNA linker
For the molecule B2, binding with Gal80 [1] was characterised by a dissociation constant (Kd) of 982 nM. The molecule QYHHFMNLKRQGRAQAYGSC (20-mer random peptide) [TRF21] had a Kd with transferrin of approximately 60 µM.

B3: TRF19 (peptide)
peptide: KEDNPGYSSEQDYNKLDGSC
notes: 20-mer random peptide; on the array it is attached by its C-terminal cysteine to the surface
As for B3, the Kd with transferrin is approximately 150 µM. The same measure, in the same setting: with AHKVVPQRQIRHAYNRYGSC (20-mer random peptide) [TRF26] the figure was approximately 100 µM. Take FRGWAHIFFGPHVIYRGGSC (20-mer random peptide) [TRF23]: the Kd with transferrin was approximately 50 µM. Still for that read-out and setting: the figure for SVKPWRPLLTGNRWLNSGSC [TRF24] is approximately 50 µM.

B4: linker-optimized BP1/BP2 DNA-linked synbody (BP1 on the template strand, BP2 at position 13 from the 3' end of the variable strand) (designed binder)
peptide 1: GTEKGTSGWLKTGSC
peptide 2: EGEWTEGKLSLRGSC
modifications: not fully specified; C-terminal cysteine conjugated through SMCC to the amine-modified cytosine at position 13 from the 3' end of the DNA variable strand (SEQ ID NO: 15); C-terminal cysteine conjugated through SMCC to the amine-modified 5' terminal cytosine of the DNA template strand (SEQ ID NO: 14)
notes: The two peptides are held about 5 nm apart by a double-stranded DNA linker; also called Gal80 synbody; gal80 synbody
On to B4, for which the figures for the Kd in the assay with Gal80 [2] and with Gal80 [3] were 91 nM and approximately 100 nM, respectively.
